Consider 1 molecule from patent US20250213684A1, “COMBINATION THERAPIES COMPRISING ANTIBODY MOLECULES TO TIM-3” (Novartis AG, priority 2015, published 2025).

The subject of assay [1] is PD-L1 IgV/TIM-3 mucin construct. The assay is described as follows: Domain analysis: binding to PD-L1 IgV/TIM-3 mucin chimeric construct. The settings on record: recombinant construct with TIM-3 IgV domain replaced. The method, then:
TIM-3 has an extracellular IgV domain and a mucin domain. […] 3A. […] The dissociation constant (KD) values were calculated for each tested antibody for the recombinant construct are shown in Table 8.

Assay [2] has as its system IL-12 stimulated CD4+ cells. The assay is described as follows: IFN-gamma secretion and proliferation of IL-12 stimulated CD4+ cells. It is filed as cell-based. The settings on record: IL-12 stimulated CD4+ T cells. The method, then:
The ability of four antibodies to enhance IFN-gamma secretion and proliferation of IL-12 stimulated CD4+ cells was assayed. This assay used the observation that a high dose of IL-12 induces expression of TIM-3 and yields an exhausted phenotype in T cells (see Yang et al., J. Clin. Invest. 122:4 p 1271 2012). […] After PMA/ionomycin restimulation and fixation and permeabilization of cells, the resulting IFN-gamma levels were measured by flow cytometry (y axis) and proliferation was measured by CFSE fluorescence (x axis). FIG. 5B quantifies IFN-gamma expression in cells exposed to these four antibodies.

For a further assay, the target named is T1, murine TIM-3 (Mus musculus, UniProt Q8VIM0).
T1 construct: expressed in transfected cells
The assay is described as follows: Flow cytometry binding to murine TIM-3 expressed in cells. From the text:
(§1) Human TIM-3 has about 23% sequence identity with human TIM-4. Murine TIM-3 has about 66% sequence identity with human TIM-3 and 64% sequence identity with cynomolgus TIM-3.

For assay [3], the target named is T2, TIM-3 binding to PtdSer (phosphatidylserine) (Homo sapiens, UniProt Q8TDQ0).
T2 construct: huTIM-3 extracellular domain fused to an Ig Fc region
The assay is described as follows: Blocking of TIM-3-Ig binding to PtdSer on anti-CD95-treated WR19L(Fas) cells. The method, then: TIM-3 binds to PtdSer (phosphatidylserine), a lipid that is typically present on the surface of apoptotic cells and not normal cells. Anti-CD95-treated WR19L(Fas) cells were cultured under conditions that promote PtdSer accumulation on the cell surface (flipping of PtdSer from the inner membrane to external exposure upon induction of apoptosis). TIM-3-Ig (huTIM-3 extracellular domain fused to an Ig Fc region) was added to the cells, and binding of TIM-3-Ig to the cells was assayed in the presence of various antibodies.

A further assay deals with T3, human TIM-3 (Homo sapiens, UniProt Q8TDQ0).
T3 construct: expressed in transfected cells
Nature of the assay: Flow cytometry binding to cells transfected with human TIM-3. The following applies: overall statement on the binding experiments of Example 1. As to the method:
(§2) Panels of anti-TIM-3 antibodies were assayed for binding to TIM-3 expressing cells.

In assay [4] the test system is naïve T cell / dendritic cell co-culture. Nature of the assay: Proliferation in autologous T-DC co-cultures (CFSE). It is filed as cell-based. The following applies: 0.01-25 μg/mL, four days, anti-CD3/CD28; vs no antibody and mouse IgG1 control. The source says: TIM-3 can be expressed on dendritic cells (DCs) and T cells. Naïve T cells and dendritic cells were isolated from donor samples. Naïve T cells and conventional DCs were cocultured for four days in the presence of anti-CD3/CD28. […] Cell proliferation was detected by a CFSE proliferation assay, which relies on dilution of CFSE staining to detect proliferating cells.

In a further assay the target is T4, human TIM-4 (Homo sapiens, UniProt Q96H15).
T4 construct: expressed in transfected cells; host or cells: CHO cells
T4 sequence (Q96H15 25-378): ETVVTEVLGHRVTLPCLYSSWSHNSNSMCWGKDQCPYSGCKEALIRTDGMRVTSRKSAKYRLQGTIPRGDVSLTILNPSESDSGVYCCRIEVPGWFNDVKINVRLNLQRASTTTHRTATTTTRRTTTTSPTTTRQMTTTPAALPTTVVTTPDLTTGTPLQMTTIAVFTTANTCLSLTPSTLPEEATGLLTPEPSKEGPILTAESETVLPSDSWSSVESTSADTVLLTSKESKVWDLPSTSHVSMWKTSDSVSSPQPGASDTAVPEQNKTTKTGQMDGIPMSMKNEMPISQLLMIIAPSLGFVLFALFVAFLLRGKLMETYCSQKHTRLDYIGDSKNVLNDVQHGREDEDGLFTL
Nature of the assay: Flow cytometry binding to human TIM-4 expressed in CHO cells.
Source text: as §1
(In flow cytometry, cells or beads pass a laser one at a time.)

For the next assay, the system named is cynomolgus TIM-3. The assay is described as follows: Flow cytometry binding to cells transfected with cynoTIM-3. The arrangement: species or system cynomolgus monkey. The following applies: overall statement on the binding experiments of Example 1. The method, then:
as §2

The subject of the next assay is K562 cells. Nature of the assay: In vitro cytotoxic activity of purified NK cells against K562 cells. In kind it is cell-based. The settings on record: antibody 10 μg/mL, 4-hour incubation with target cells. As to the method: 5.1 TIM-3 blockade enhances in vitro cytotoxic activity of purified NK cells TIM-3 is highly expressed endogenously on NK (natural killer) cells; its expression is further induced on activated NK cells. TIM-3 may act to restrain NK cell function, as do other inhibitory receptors. See Ndhlovu et al., Blood 119:3734, 2012, and Silva et al., Cancer Immunol Res 2:410, 2014.
In this assay. NK cells were purified from whole blood by negative bead selection and then incubated with antibody (10 μg/mL) at 37° C. After 1 hour, target K562 cells were added. After a 4-hour incubation at 37° C., the percent of K562 cell killing was measured.

T1 sequence (Q8VIM0 20-281): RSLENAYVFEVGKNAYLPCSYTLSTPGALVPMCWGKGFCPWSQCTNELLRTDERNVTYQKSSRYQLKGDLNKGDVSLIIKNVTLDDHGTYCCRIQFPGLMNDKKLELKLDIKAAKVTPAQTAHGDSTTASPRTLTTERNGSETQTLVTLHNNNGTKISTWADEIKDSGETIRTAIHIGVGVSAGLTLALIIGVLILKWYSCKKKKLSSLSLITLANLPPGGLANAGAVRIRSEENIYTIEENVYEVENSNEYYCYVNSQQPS

B1: ABTIM3: murine anti-TIM-3 antibody; VH SEQ ID NO: 1, VL SEQ ID NO: 2 (antibody, V domains shown)
VH: QVQLQQPGAELVKPGASVKMSCKASGYTFTSYNMHWIKQTPGQGLEWIGDIYPGNGDTSYNQKFKGKATLTADKSSSTVYMQLSSLTSEDSAVYYCARVGGAFPMDYWGQGTSVTVSS
VL: DIVLTQSPASLAVSLGQRATISCRASESVEYYGTSLMQWYQQKPGQPPKLLIYAASNVESGVPARFSGSGSGTDFSLNIHPVEEDDIAIYFCQQSRKDPSTFGGGTKLEIK
For the molecule B1, the “binding to the chimeric protein of FIG. 3A” value in [1] is “do not substantially bind”. In assay [2] (CFSE), the proliferation result is listed as “enhances”. Further, the IFN-gamma secretion entry in [2] (flow cytometry) is “enhances”. In the assay with murine TIM-3, the “cross-reactivity with murine TIM-3” value is listed as “not cross-reactive”. In addition, in assay [3], the “inhibition of binding of TIM-3 to PtdSer” value is given as “inhibit the binding of TIM-3 to PtdSer”. In addition, in the assay with human TIM-3, the “affinity for human TIM-3” value is recorded as “sub-nanomolar”. Also, the “proliferating cells (CFSE-diluted cells)” value in assay [4] is recorded as “increase in proliferating cells”. In the assay with human TIM-4, the “binding to human TIM-4” value is “does not bind”. The “affinity for cynomolgus TIM-3” value in the assay on cynomolgus TIM-3 is listed as “sub-nanomolar”. In addition, the “percent of K562 cell killing by NK cells” value with K562 cells was “elevated levels of K523 cell killing relative to anti-TIM-3 #2 or the isotype control”.
